The target of test [1] is His tagged VEGF protein (UniProt P15692). The test is described as follows: ELISA, His tagged VEGF protein.
The target of test [2] is His tagged CD20 protein (UniProt P11836). The test is described as follows: ELISA, His tagged CD20 protein. Background: ELISA stands for enzyme-linked immunosorbent assay.

Where a chain is given by its changes, count along the chain named.

Chain of His tagged VEGF protein (P15692 other isoform, or with tags, fused parts or gaps limits assumed): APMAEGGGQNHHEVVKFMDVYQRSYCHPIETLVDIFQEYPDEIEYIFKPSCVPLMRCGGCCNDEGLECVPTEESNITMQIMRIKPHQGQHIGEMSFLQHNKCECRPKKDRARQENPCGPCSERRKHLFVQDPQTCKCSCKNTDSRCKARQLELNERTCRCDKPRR

B1: Beva-se002 conjugated to S47 (antibody, human IgG1, kappa, V domains shown)
VH: EVQLVESGGGLVQPGGSLRLSCAASGYTFTNYGMNWVRQAPGKGLEWVGWINTYTGEPTYAADFKRRFTFSLDTSKSTAYLQMNSLRAEDTAVYYCAKYPHYYGSSHWYFDVWGQGTLVTVSS
VL: DIQMTQSPSSLSASVGDRVTITCSACQDISNYLNWYQQKPGKAPKVLIYFTSSLHSGVPSRFSGSGSGTDFTLTISSLQPEDFATYYCQQYSTVPWTFGQGTKVEIKR
modifications: S47 on Cys 26
B1 showed a Blocking efficiency of S47 in test [1] of 16 fold.

B2: Beva-se003 conjugated to S47 (antibody, human IgG1, kappa, V domains shown)
VH: B1 VH
VL: B1 VL with C26S, Y49C
modifications: S47 on Cys 49
In the case of B2, in test [1], the Blocking efficiency of S47 came out at 26 fold.

B3: Beva -se004 conjugated to S47 (antibody, human IgG1, kappa, V domains shown)
VH: B1 VH
VL: B1 VL with C26S, T51C
modifications: S47 on Cys 51
With B3, the Blocking efficiency of S47 in test [1] came to 13 fold.

B4: Ritu-se001 conjugated to S47 (antibody, human IgG1, kappa, V domains shown)
VH: QVQLQQPGAELVKPGASVKMSCKASGYTFTSCNMHWVKQTPGRGLEWIGAIYPGNGDTSYNQKFKGKATLTADKSSSTAYMQLSSLTSEDSAVYYCARSTYYGGDWYFNVWGAGTTVTVSA
VL: QIVLSQSPAILSASPGEKVTMTCRASSSVSYIHWFQQKPGSSPKPWIYATSNLASGVPVRFSGSGSGTSYSLTISRVEAEDAATYYCQQWTSNPPTFGGGTKLEIKR
modifications: S47 on Cys 32
Turning to B4, the Blocking efficiency of S47 in test [2] came to 16 fold.

B5: Ritu-se002 conjugated to S47 (antibody, human IgG1, kappa, V domains shown)
VH: B4 VH with C32Y, K63C
VL: B4 VL
modifications: S47 on Cys 63
In test [2], B5 yielded a Blocking efficiency of S47 of 8 fold.

(Values after patent US20230158141A1.)
